Source: the supplement of paper PMC9170038

Experiments:
MS2 coat protein [1] = test: apparent KD of MS2 coat protein, switch ON state; designed switch direction (-1 OFF switch, 1 ON switch): 1; higher = weaker reporter binding; details: FMN input: 0 or 200 uM; Eterna round: R93 (includes R88 designs)
How it was run: (§1)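 With or without constant ligand, designed RNA switches in 100 mM Tris-HCl pH 7.5, 80 mM KCl and 4 mM MgCl2 were titrated with SNAP-549-labelled MS2 coat protein. Concentrations went up in twofold steps from 0.7 or 1.5 nM to 3 µM. The switches had been transcribed on-chip from Illumina sequencing clusters, and apparent KD is the per-design median of normalised cluster binding-curve fits.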

MS2 coat protein [2] = test: apparent KD of MS2 coat protein, switch OFF state (with FMN for OFF switches, without FMN for ON switches); designed switch direction (-1 OFF switch, 1 ON switch): 1; higher = weaker reporter binding; details: FMN input: 0 or 200 uM; Eterna round: R93 (includes R88 designs)
How it was run: as §1

| Sequence | apparent KD of MS2 coat protein (MS2 coat protein [1]) | apparent KD of MS2 coat protein (MS2 coat protein [2]) |
| --- | --- | --- |
| AAAACACAUGAGGAUCACCCAUGUAAAAACAUGGGAGGAUAUGCUUGGAAAACAUGCUAUGCAGAAGGCUCAAGUG [SS1 - 12] | 72.6 nM | 46.4 nM |
| AAAAGACAUGAGGAUCACCCAUGUAAAAACGUAGGAGGAUAUGUAUGGAAACCAGACUGUACAGAAGGCCUUUGUC [SS1 - 73] | 20 nM | 19.4 nM |
| AAAAGACAUGAGGAUCACCCAUGUAAAGACAUAGGAGGAUAUGUCAUGAAAAAAGACUUGACAGAAGGCCUUUGUC [SS1 - 50] | 20.4 nM | 20.4 nM |
| AAAAGACAUGAGGAUCACCCAUGUCAAAACGUAGGAGGAUAUGUCUUGAAAAAAGACUUGACAGAAGGCCUGUGUC [SS1 - 54] | 15.1 nM | 17 nM |
| AAAAGACAUGAGGAUCACCCAUGUCUUCGGACAUGAGGAUAUGUACAGACUUCGGUCUGUACAGAAGGCAUAAAAA [SS1 - 1062] | 21.1 nM | 82.2 nM |
| AAAAGACAUGAGGAUCACCCAUGUGAAAACGUACAAGGAUAUGUGUGGAAACCGUACUAUACAGAAGGUGUCUGUC [SS1 - 87] | 63 nM | 30.2 nM |
| AAAAGACAUGAGGAUCACCCAUGUGAAAACGUGCGAGGAUAUGUGUGGAAACCGUACUAUACAGAAGGCGCGUGUC [SS1 - 84] | 22.2 nM | 33.9 nM |
| AAAGAAUGAAGGCAGGAUAUGUGAAAAAAAACAUGAGGAUCACCCAUGUAAUAAAUGGGUACAAAACAGAAGGGCCAAGAAAUAA [SS 2 Tesla 2] | 170 nM | 398 nM |
| AAAGAAUGAAGGCAGGAUAUGUGAAAAAAAACAUGAGGAUCACCCAUGUAAUAGAUGGUGAAAAGGCAGAAGGGCCAAGAAACAA [SS 2 Tesla 6] | 12.4 nM | 199 nM |
| AAAGACAUGGUGUAGGAUAUAUUAAUAGUCACAUGAGGAUCACCCAUGUUCAUAUAUAUGAACGAGUAGAAGGACGAUGAAAAAA [SameState2 Malc#3] | 497 nM | 205 nM |
| AAAUAAAGGACUGAGGAUAUACCACAUGAAACAUGAGGAUCACCCAUGUAGAAAUACAAGCGGUGGUAGAAGGCAGUCCACAAAC [Same State 2.5i ( so lets mod hyphema)] | 21.2 nM | 20.4 nM |
| AAAUAAAUGACUAAGGAUAUAUCAGAAAAAACAUGAGGAUCACCCAUGUAAUAAUAAAAAGGGUGAUAGAAGGUAGUCAACAAAC [74%, More Paria 4] | 25.6 nM | 118 nM |
| AAAUAACAUGAGGAUCACCCAUGUUGCAACGGUAGAGGAUAUGUGGGUGAAAAUAGCAUGGCAGAAGGCUAGUGUA [SameState1 Malc#28] | 172 nM | 110 nM |
| AAAUUACAUGAGGAUCACCCAUGUAACGACGUUACAGGAUAUGUGGGUGAAAAUAGCAUGACAGAAGGGUACCGUA [SameState1 Malc#38] | 78.8 nM | 28.4 nM |
| AACAAUCUAUCUGAGGAUAUGUGUCGAAAGACAUGAGGAUCACCCAUGUAAAAACAUGAAAAGAUACAGAAGGCAGAUAGAUUGA [SS2: 1156] | 18.1 nM | 29.3 nM |
| AACAAUCUAUCUGAGGAUAUGUGUCGAAAGACAUGAGGAUCACCCAUGUGAAAACAUGGAAAAACACAGAAGGCAGAUAGAUUGA [SS2: 1150] | 147 nM | 202 nM |
| AACGAACAUGAGGAUCACCCAUGUUCCAACAGUUGAGGAUAUGUGGGUGAAAAUAGCACGGCAGAAGGCGAGUGUA [SameState1 Malc#21] | 70.2 nM | 49.8 nM |

| Sequence | apparent KD of MS2 coat protein (MS2 coat protein [1]) | apparent KD of MS2 coat protein (MS2 coat protein [2]) |
| --- | --- | --- |
| AACGAACAUGAGGAUCACCCAUGUUCCAGCAGUUGAGGAUAUGUGGGUGAAAAUAGCACGGCAGAAGGCGAGUGUA [SameState1 Malc#22] | 79.8 nM | 82.1 nM |
| AACUAACAUGAGGAUCACCCAUGUUACAGCAGUUGAGGAUAUGUGGGUGAAAAUAGCACGGCAGAAGGCGAGUGUA [SameState1 Malc#23] | 237 nM | 150 nM |
| AAGAAACAUGAGGAUCACCCAUGUAAGAUAAACACAGGAUAUGCAAAAGAAAGAAAGAAAGCAGAAGGGUGAAGAA [Mat - Same State 1 - Tesla mod - 50] | 15.7 nM | 42.3 nM |
| AAGAAACAUGAGGAUCACCCAUGUAAGAUAAACACAGGAUAUGCGAAAAUAAACAAAUAAGCAGAAGGGUGAAGAA [Mat - Same State 1 - Tesla mod - 65] | 19.5 nM | 28.1 nM |
| AAGAAACAUGAGGAUCACCCAUGUAAGAUAAACACAGGAUAUGCGAAAGAAACAAAAGAAGCAGAAGGGUGAAGAA [Mat - Same State 1 - Tesla mod - D146] | 17.1 nM | 29.4 nM |
| AAGAAACAUGAGGAUCACCCAUGUACCCAAAAGGGAGGAUAUGCGAAAGAAAGAAAGAAAGCAGAAGGCCCAUGAA [Artaxerxes I Longhand] | 13.9 nM | 25.3 nM |
| AAGAAACAUGAGGAUCACCCAUGUAGAAAUAUGGGAGGAUAUACAAGGACGGAAGUCAAGGUAGAAGGCCUAAGAA [Mat - Same State 1 - Meechl mod - D133] | 26.7 nM | 112 nM |
| AAGAAACAUGAGGAUCACCCAUGUAGAAAUAUGGGAGGAUAUACGAAGACGAAAGUCAAAGUAGAAGGCCUAAAGA [Mat - Same State 1 - Eli mod - D106] | 20.3 nM | 61.5 nM |
| AAGAAAGAAACAUAGGAUAUCAAGGAUAUAACAUGAGGAUCACCCAUGUAAAUACGAAAGUAUAAUGAGAAGGAUGGAUGAUCUAC [Meechl MS2 SS2 3] | 200 nM | 79.5 nM |
| AAUAAAAAUAGUUAGGAUAUGAGAACUAGGACAUGAGGAUCACCCAUGUAACUAGAACAAGUAAAUCAGAAGGGACAGGGUGAAA [JR_SS002_Sub203] | 41.9 nM | 19 nM |
| AAUAAGACUAGCAAGGAUAUCGAAAACGAGACAUGAGGAUCACCCAUGUAACAAGUAAAAGUAAACGAGAAGGUGCAGGGUGAAA [JR_SS002_Sub301] | 56.9 nM | 80 nM |
| AAUAAUUAUAGCAAGGAUAUCGGUAUAAAGACAUGAGGAUCACCCAUGUAAUAUGGUUAAAUUUACGAGAAGGUGCAGGGUGAAA [JR_SS002_Sub009] | 170 nM | 142 nM |
| AAUAUACAUGAGGAUCACCCAUGUUAGGUGGGACUAGGAUAUCAAAAUAAAUAAUGAACAUGAGAAGGAGUAUCAA [JR_SS001_Sub402] | 130 nM | 190 nM |
| AAUAUACAUGAGGAUCACCCAUGUUAGGUGGGUCAAGGAUAUCAAUAUAAAUAAAAAACUUGAGAAGGUGAAUAAA [JR_SS001_Sub019] | 133 nM | 155 nM |
| AAUAUACAUGAGGAUCACCCAUGUUUUAAUAACUCAGGAUAUACAGGUGAAAACAGCAUAGUAGAAGGGAGAAAAA [SameState1 Malc#3] | 18.2 nM | 23.2 nM |
| AAUCCACAUGAGGAUCACCCAUGUCAGGAAAUGACAGGAUAUAGCGAAAAAAAAAAAAAGCUAGAAGGGUCUAAUU [SameState1-cac2] | 31.3 nM | 107 nM |
